Results as given in publication PMC3066550.

Assays:
Assay in all cases: co-IP
[1] = biological target: LANADBD YR879AA (Kaposi's sarcoma-associated herpesvirus (KSHV; human herpesvirus 8))
[2] = biological target: LANADBD LSQ912AAA (Kaposi's sarcoma-associated herpesvirus (KSHV; human herpesvirus 8))
[3] = biological target: LANADBD SKK953AAA (Kaposi's sarcoma-associated herpesvirus (KSHV; human herpesvirus 8))
[4] = biological target: LANADBD YGL907AAA (Kaposi's sarcoma-associated herpesvirus (KSHV; human herpesvirus 8))
[5] = biological target: LANADBD WE963AA (Kaposi's sarcoma-associated herpesvirus (KSHV; human herpesvirus 8))
[6] = biological target: LANADBD KDT950AAA (Kaposi's sarcoma-associated herpesvirus (KSHV; human herpesvirus 8))
[7] = biological target: LANADBD R873A (Kaposi's sarcoma-associated herpesvirus (KSHV; human herpesvirus 8))
[8] = biological target: LANADBD K871A (Kaposi's sarcoma-associated herpesvirus (KSHV; human herpesvirus 8))
[9] = biological target: LANADBD HIF876AAA (Kaposi's sarcoma-associated herpesvirus (KSHV; human herpesvirus 8))

**Q.** What does the source list for “wild-type KSHV LANA DNA-binding domain (LANADBD, aa 775-1003) (domain or fragment)”?
**A.** dimerization activity by IP, percent of wt [1]: 73 % of wt; dimerization activity by IP, percent of wt [2]: 248 % of wt; dimerization activity by IP, percent of wt [3]: 64 % of wt; dimerization activity by IP, percent of wt [4]: 73 % of wt; dimerization activity by IP, percent of wt [5]: 29 % of wt; dimerization activity by IP, percent of wt [6]: 74 % of wt; dimerization activity by IP, percent of wt [7]: 135 % of wt; dimerization activity by IP, percent of wt [8]: 74 % of wt; dimerization activity by IP, percent of wt [9]: 127 % of wt
